The text below walks through data of US20090062198A1.

Ends that are not written are not given here.

This test deals with mammalian voltage-gated Kv1.2 channel (mammalian).

With VSCTGSKDCYAPCRQQTGCPNAKCINKSCKCYGC (not fully specified; ends and bridges not checked) [[Q15]-MTX], the potency on the channel turned out to be 0.047 nM.
